Entries after “also recorded” stand apart in the source; their conditions may differ. Where two headings read alike, the source gives them in different places.
Columns and labels:
CCR5 [1] = molecular target: T1, CCR5 (Homo sapiens, UniProt P51681); design: endogenous in cells; host or cells: CD4+ T cells; conditions: cited from earlier work
CCR5 [2] = molecular target: T1, CCR5; conditions: CHO-K1 cells, cited from earlier work
MDA-MB-231 cells [3] = test: 3D-matrigel invasion assay, CCL5 as chemoattractant; format: cell-based, human
Excerpt: FIG. 3A, FIG. 3B, FIG. 3C, and FIG. 3D. […] The ability of breast cancer cells to invade extra-cellular matrix is […] an important step in tumor metastasis (Zetter, 1990). To test the ability of PRO140 to block 3D-matrigel invasion assay, MDA-MB-231 cells were used. CCL5 was used as chemoattractant to induce invasion. The small molecule inhibitor of CCR5, vicriviroc, was used as a form of positive control.

CCR5 [4] = molecular target: T1, CCR5; test: FACS binding of leronlimab to CCR5 in MDA-MB-231-CCR5 cells; design: expressed in transfected cells; host or cells: MDA-MB-231 human breast cancer cell line (MDA-MB-231-CCR5)
Excerpt: A previously tested commercial APC conjugated mouse anti-human/mouse/rat CCR5 antibody from R&D (FAB1802A) (APC-αCCR5) was used as a positive control to assess CCR5 positive cells.

HIV-1 = conditions: at concentrations that do not affect CCR5 chemokine receptor activity in vitro; cited from earlier work
MDA-MB-231 cells [5] = test: MTT assay, leronlimab combined with doxorubicin; format: cell-based, human; conditions: 10 mg/ml leronlimab with different dose of doxorubicin, 3 days
Procedure: FIG. 5A and FIG. 5B. […] The MTT assay was used to determine the relative cell number (FIG. 5A). The cells treated with maraviroc ([…]) combining with different dose of doxorubicin were used as positive control (FIG. 5B). Data are shown as mean±SEM for N=8.

T1 sequence (P51681 whole entry): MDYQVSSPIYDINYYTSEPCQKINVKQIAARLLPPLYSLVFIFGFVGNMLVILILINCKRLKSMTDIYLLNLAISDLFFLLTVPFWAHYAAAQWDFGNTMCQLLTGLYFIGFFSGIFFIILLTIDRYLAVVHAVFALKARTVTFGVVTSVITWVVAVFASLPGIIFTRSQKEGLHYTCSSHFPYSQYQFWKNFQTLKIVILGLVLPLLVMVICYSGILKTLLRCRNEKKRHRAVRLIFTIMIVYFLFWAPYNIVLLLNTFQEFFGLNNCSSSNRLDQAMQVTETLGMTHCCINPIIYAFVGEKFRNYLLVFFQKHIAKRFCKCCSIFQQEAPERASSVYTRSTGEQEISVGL

B1: leronlimab: humanized monoclonal antibody to CCR5; humanized version of the murine mAb PA14 (antibody, chains of the INN, looked up, V domains shown)
VH: EVQLVESGGGLVKPGGSLRLSCAASGYTFSNYWIGWVRQAPGKGLEWIGDIYPGGNYIRNNEKFKDKTTLSADTSKNTAYLQMNSLKTEDTAVYYCGSSFGSNYVFAWFTYWGQGTLVTVSS
VL: DIVMTQSPLSLPVTPGEPASISCRSSQRLLSSYGHTYLHWYLQKPGQSPQLLIYEVSNRFSGVPDRFSGSGSGTDFTLKISRVEAEDVGVYYCSQSTHVPLTFGQGTKVEIK
- effect on cAMP levels (CCR5 [1]; added to CD4+ T cells alone): does not affect cAMP levels
- effect on cAMP levels (CCR5 [1]; administered with CCL5): diminishes the effect of CCL5 on cAMP levels
- effect on chemotaxis (CCR5 [2]; administered with CCL5): reduces CCL5-induced chemotaxis
- effect on chemotaxis (CCR5 [2]; alone): does not affect chemotaxis of CHO-K1 cells
- effect on MDA-MB-231 cell invasion (MDA-MB-231 cells [3]; 175 µg/ml): can effectively block MDA-MB-231 cell invasion
- effect on MDA-MB-231 cell invasion (MDA-MB-231 cells [3]; 350 µg/ml): can effectively block MDA-MB-231 cell invasion
- effect on CCL5-induced cell invasion (MDA-MB-231 cells [3]; vicriviroc as positive control): reduced CCL5-induced MDA-MB-231 breast cancer cell invasion with similar efficacy as vicriviroc; also recorded: blocked 3D matrigel invasion
- efficiency of binding to CCR5 positive cells (CCR5 [4]): 98%
- efficiency of binding to CCR5 positive cells (CCR5 [4]; listed as PRO140): up to 98%
- inhibition of HIV-1 entry and replication (HIV-1): potently inhibits HIV-1 entry and replication
- cell death induced by doxorubicin (MDA-MB-231 cells [5]): augmented cell killing by DNA damage inducing agents including Doxorubicin; also recorded: enhances the cell death induced by doxorubicin

Source: patent US20220162327A1, “ANTI-CCR5 AGENTS AND METHODS OF TREATMENT THAT BLOCK CANCER METASTASIS OR ENHANCE CELL DEATH INDUCED BY DNA DAMAGING CHEMOTHERAPY” (CytoDyn Inc., priority 2019, published 2022)
